pKd: −log10 of the molar value.
Columns and labels:
ERK2 (Rattus norvegicus) = ERK2 (Rattus norvegicus) (UniProt P63086); conditions: cited from earlier work
[1] = biological target: activated His6-tagged ERK2 (cleavable His6-tag construct, tag not cleaved) (Rattus norvegicus) (UniProt P63086); assay: SEC-MALS

Row | percent dimer [1] [%] | stoichiometry N [1] | Substance | pKd (ERK2 (Rattus norvegicus))
1 |  |  | ERK2 (from UniProt P63086) | 8.15
2 | 30 | 2 | activated His6-tagged ERK2 (cleavable His6-tag construct, tag not cleaved) (from UniProt P63086 1-358) (enzyme) | 
